Measurements as given in the supplement of paper PMC11246515.
± gives the standard deviation of the averaged measurements.

Assay: total protein half-life in vivo (active degradation + dilution); higher = more stable protein
[1] = E. coli NCM3722 delta-clpP delta-lon delta-hslV, growth: N-lim chemostat, doubling time 6 h
[2] = E. coli NCM3722 delta-clpP, growth: N-lim chemostat, doubling time 6 h
[3] = E. coli NCM3722 delta-hslV, growth: N-lim chemostat, doubling time 6 h
[4] = E. coli NCM3722 delta-lon, growth: N-lim chemostat, doubling time 6 h
[5] = E. coli NCM3722 delta-smpB, growth: N-lim chemostat, doubling time 6 h
[6] = wild type E. coli NCM3722, growth: C-lim chemostat, doubling time 3 h
[7] = wild type E. coli NCM3722, growth: C-lim chemostat, doubling time 6 h
[8] = wild type E. coli NCM3722, growth: C-lim chemostat, doubling time 12 h
[9] = wild type E. coli NCM3722, growth: N-lim chemostat, doubling time 6 h
[10] = wild type E. coli NCM3722, growth: N-lim chemostat, doubling time 12 h
[11] = wild type E. coli NCM3722, growth: P-lim chemostat, doubling time 6 h
[12] = wild type E. coli NCM3722, growth: P-lim chemostat, doubling time 12 h

Sequence	total protein half-life in vivo [1]	total protein half-life in vivo [2]	total protein half-life in vivo [3]	total protein half-life in vivo [4]	total protein half-life in vivo [5]	total protein half-life in vivo [6]	total protein half-life in vivo [7]	total protein half-life in vivo [8]	total protein half-life in vivo [9]	total protein half-life in vivo [10]	total protein half-life in vivo [11]	total protein half-life in vivo [12]
MLSIKDLHVSVEDKAILRGLSLDVHPGEVHAIMGPNGSGKSTLSATLAGREDYEVTGGTVEFKGKDLLALSPEDRAGEGIFMAFQYPVEIPGVSNQFFLQTALNAVRSYRGQETLDRFDFQDLMEEKIALLKMPEDLLTRSVNVGFSGGEKKRNDILQMAVLEPELCILDESDSGLDIDALKVVADGVNSLRDGKRSFIIVTHYQRILDYIKPDYVHVLYQGRIVKSGDFTLVKQLEEQGYGWLTEQQ	4.81 ± 0.069 h	5.52 ± 1.8 h	4.19 ± 0.79 h	4.25 ± 0.1 h	3.63 ± 0.052 h	2.88 ± 0.13 h	5.37 ± 0.23 h	10.1 ± 0.62 h	3.75 ± 0.3 h	5.68 ± 0.23 h	5.47 ± 0.51 h	9.75 ± 0.2 h
MLSKFKRNKHQQHLAQLPKISQSVDDVDFFYAPADFRETLLEKIASAKQRICIVALYLEQDDGGKGILNALYEAKRQRPELDVRVLVDWHRAQRGRIGAAASNTNADWYCRMAQENPGVDVPVYGVPINTREALGVLHFKGFIIDDSVLYSGASLNDVYLHQHDKYRYDRYHLIRNRKMSDIMFEWVTQNIMNGRGVNRLDDVNRPKSPEIKNDIRLFRQELRDAAYHFQGDADNDQLSVTPLVGLGKSSLLNKTIFHLMPCAEQKLTICTPYFNLPAILVRNIIQLLREGKKVEIIVGDKTANDFYIPEDEPFKIIGALPYLYEINLRRFLSRLQYYVNTDQLVVRLWKDDDNTYHLKGMWVDDKWMLITGNNLNPRAWRLDLENAILIHDPQLELAPQREKELELIREHTTIVKHYRDLQSIADYPVKVRKLIRRLRRIRIDRLISRIL	5.434 ± 0.046 h	5.74 ± 0.068 h	5.18 ± 0.38 h	5.91 ± 0.5 h	4.896 ± 0.011 h	2.97 ± 0.26 h	5.64 ± 0.11 h	9.36 ± 0.81 h	5.01 ± 0.21 h	8.57 ± 0.86 h	6.41 ± 0.85 h	12 ± 1.5 h
MLSRRGHRLSRFRKNKRRLRERLRQRIFFRDKVVPEAMEKPRVLVLTGAGISAESGIRTFRAADGLWEEHRVEDVATPEGFDRDPELVQAFYNARRRQLQQPEIQPNAAHLALAKLQDALGDRFLLVTQNIDNLHERAGNTNVIHMHGELLKVRCSQSGQVLDWTGDVTPEDKCHCCQFPAPLRPHVVWFGEMPLGMDEIYMALSMADIFIAIGTSGHVYPAAGFVHEAKLHGAHTVELNLEPSQVGNEFAEKYYGPASQVVPEFVEKLLKGLKAGSIA	5.1 ± 0.51 h	4.14 ± 0.054 h	4.03 ± 0.65 h	5.77 ± 0.77 h	4.15 ± 0.36 h	2.64 ± 0.21 h	4.79 ± 0.29 h	10.2 ± 0.35 h	4.37 ± 0.24 h	7.71 ± 0.99 h	5.56 ± 0.39 h	10.5 ± 1.2 h
MLSTLRRTLFALLACASFIVHAAAPDEITTAWPVNVGPLNPHLYTPNQMFAQSMVYEPLVKYQADGSVIPWLAKSWTHSEDGKTWTFTLRDDVKFSNGEPFDAEAAAENFRAVLDNRQRHAWLELANQIVDVKALSKTELQITLKSAYYPFLQELALPRPFRFIAPSQFKNHETMNGIKAPIGTGPWILQESKLNQYDVFVRNENYWGEKPAIKKITFNVIPDPTTRAVAFETGDIDLLYGNEGLLPLDTFARFSQNPAYHTQLSQPIETVMLALNTAKAPTNELAVREALNYAVNKKSLIDNALYGTQQVADTLFAPSVPYANLGLKPSQYDPQKAKALLEKAGWTLPAGKDIREKNGQPLRIELSFIGTDALSKSMAEIIQADMRQIGADVSLIGEEESSIYARQRDGRFGMIFHRTWGAPYDPHAFLSSMRVPSHADFQAQQGLADKPLIDKEIGEVLATHDETQRQALYRDILTRLHDEAVYLPISYISMMVVSKPELGNIPYAPIATEIPFEQIKPVKP	6.58 h	6.35 h	> 8 h	> 8 h	–	–	> 8 h	> 16 h	6.2 h	> 16 h	6.61 h	–
MLSYRHSFHAGNHADVLKHTVQSLIIESLKEKDKPFLYLDTHAGAGRYQLGSEHAERTGEYLEGIARIWQQDDLPAELEAYINVVKHFNRSGQLRYYPGSPLIARLLLREQDSLQLTELHPSDYPLLRSEFQKDSRARVEKADGFQQLKAKLPPVSRRGLILIDPPYEMKTDYQAVVSGIAEGYKRFATGIYALWYPVVLRQQIKRMIHDLEATGIRKILQIELAVLPDSDRRGMTASGMIVINPPWKLEQQMNNVLPWLHSKLVPAGTGHATVSWIVPE	4.85 ± 0.21 h	5.06 ± 0.45 h	4.81 ± 0.14 h	4.96 ± 0.05 h	4.87 ± 0.07 h	3.16 ± 0.27 h	6.11 ± 0.47 h	10.7 ± 0.25 h	5.06 ± 0.073 h	8.35 ± 0.22 h	6.55 ± 0.2 h	14 ± 2.8 h
MLTEQQRRELDWEKTDGLMPVIVQHAVSGEVLMLGYMNPEALDKTLESGKVTFFSRTKQRLWTKGETSGNFLNVVSIAPDCDNDTLLVLANPIGPTCHKGTSSCFGDTAHQWLFLYQLEQLLAERKSADPETSYTAKLYASGTKRIAQKVGEEGVETALAATVHDRFELTNEASDLMYHLLVLLQDQGLDLTTVIENLRKRHQ	5.08 ± 0.17 h	4.38 ± 0.43 h	5.44 ± 1.4 h	4.24 ± 0.072 h	4.046 ± 0.0072 h	2.92 ± 0.14 h	5.63 ± 1 h	–	4.51 ± 0.3 h	6.795 ± 0.027 h	–	12.9 ± 3.1 h
MLTIQFLCPLPNGLHARPAWELKEQCSQWQSEITFINHRQNAKADAKSSLALIGTGTLFNDSCSLNISGSDEEQARRVLEEYIQVRFIDSDSVQPTQAELTAHPLPRSLSRLNPDLLYGNVLASGVGVGTLTLLQSDSLDSYRAIPASAQDSTRLEHSLATLAEQLNQQLRERDGESKTILSAHLSLIQDDEFAGNIRRLMTEQHQGLGAAIISNMEQVCAKLSASASDYLRERVSDIRDISEQLLHITWPELKPRNKLVLEKPTILVAEDLTPSQFLSLDLKNLAGMILEKTGRTSHTLILARASAIPVLSGLPLDAIARYAGQPAVLDAQCGVLAINPNDAVSGYYQVAQTLADKRQKQQAQAAAQLAYSRDNKRIDIAANIGTALEAPGAFANGAEGVGLFRTEMLYMDRDSAPDEQEQFEAYQQVLLAAGDKPIIFRTMDIGGDKSIPYLNIPQEENPFLGYRAVRIYPEFAGLFRTQLRAILRAASFGNAQLMIPMVHSLDQILWVKGEIQKAIVELKRDGLRHAETITLGIMVEVPSVCYIIDHFCDEVDFFSIGSNDMTQYLYAVDRNNPRVSPLYNPITPSFLRMLQQIVTTAHQRGKWVGICGELGGESRYLPLLLGLGLDELSMSSPRIPAVKSQLRQLDSEACRELARQACECRSAQEIEALLTAFTPEEDVRPLLALENIFVDQDFSNKEQAIQFLCGNLGVNGRTEHPFELEEDVWQREEIVTTGVGFGVAIPHTKSQWIRHSSISIARLAKPIGWQSEMGEVELVIMLTLGANEGMNHVKVFSQLARKLVNKNFRQSLFAAQDAQSILTLLETELTF	6.54 h	–	–	–	2.21 h	2.36 h	–	–	–	–	3.21 h	–
